Here are results for 1 molecule from PMC12726774, “HAEEPGP Peptide Efficiently Prevents Alzheimer's Disease Pathology in Vivo” (Alzheimer's & Dementia, 2025).

This assay addresses beta-amyloid (Aβ) peptide. As to the kind of experiment: ITC; isothermal titration calorimetry of HAEEPGP with Aβ peptides; also with zinc ions, which enhanced the interaction; which peptide was titrated, buffer and temperature not told. The settings on record: both partners purified.

B1: HAEEPGP peptide (peptide)
peptide: HAEEPGP
notes: HAEE tetrapeptide with PGP amino acids added to its C-terminus to stabilize the peptide; The 125I label was used for pharmacokinetics only, not for the calorimetry
Consider B1, for which the dissociation constant (Kd) (as a rule, the concentration at which binding is half-saturated) was 1640 nM.
